Test results reported in PMC1769423, “Different Quaternary Structures of Human RECQ1 Are Associated with Its Dual Enzymatic Activity” (PLoS Biology, 2007).

Key:
[1] = molecular target: the molecule itself; experiment: negative-stain transmission electron microscopy; as a2 but with 2-5 mM ATP or ATPγS, with or without oligo(dT)30
[2] = molecular target: the molecule itself; experiment: SEC; Superdex200 HR 10/30, 20 mM Tris pH 7.5, 150 mM KCl, 1 mM DTT; about 40 ug RECQ1 loaded at 1 uM; alone, with oligo(dT)40 or oligo(dT)30 and/or 1 mM ATP or ATPγS in the elution buffer; also 100-500 mM salt and 0.1-35 uM protein

Row | Protein | binding result [1] | binding result [2]
1 | RECQ1(K119R) (human RECQ1, ATPase-deficient Walker A mutant) (enzyme, UniProt P46063 1-649, looked up, human RECQ1 helicase (alias RECQL), the 649-amino acid variant, with K119R in ATPase motif I (Walker A box); also called RECQ1 K119R mutant; His6-K119R RECQ1 mutant; source: baculovirus/Sf9 cells, purified; not shown: His6, N-terminal, kept) MASVSALTEELDSITSELHAVEIQIQELTERQQELIQKKKVLTKKIKQCLEDSDAGASNEYDSSPAAWNKEDFPWSGKVKDILQNVFKLEKFRPLQLETINVTMAGKEVFLVMPTGGGRSLCYQLPALCSDGFTLVICPLISLMEDQLMVLKQLGISATMLNASSSKEHVKWVHAEMVNKNSELKLIYVTPEKIAKSKMFMSRLEKAYEARRFTRIAVDEVHCCSQWGHDFRPDYKALGILKRQFPNASLIGLTATATNHVLTDAQKILCIEKCFTFTASFNRPNLYYEVRQKPSNTEDFIEDIVKLINGRYKGQSGIIYCFSQKDSEQVTVSLQNLGIHAGAYHANLEPEDKTTVHRKWSANEIQVVVATVAFGMGIDKPDVRFVIHHSMSKSMENYYQESGRAGRDDMKADCILYYGFGDIFRISSMVVMENVGQQKLYEMVSYCQNISKCRRVLMAQHFDEVWNSEACNKMCDNCCKDSAFERKNITEYCRDLIKILKQAEELNEKLTPLKLIDSWMGKGAAKLRVAGVVAPTLPREDLEKIIAHFLIQQYLKEDYSFTAYATISYLKIGPKANLLNNEAHAITMQVTKSTQNSFRAESSQTCHSEQGDKKMEEKNSGNFQKKAANMLQQSGSKNTGAKKRKIDDA | binds | –
2 | untagged RECQ1 (utRECQ1; human RECQ1 helicase after removal of the N-terminal His6-tag) (enzyme, UniProt P46063 1-649, looked up, human RECQ1 helicase (alias RECQL), the 649-amino acid variant; also called untagged wild-type RECQ1; source: baculovirus/Sf9 cells, purified; not shown: His6, N-terminal, cleaved) MASVSALTEELDSITSELHAVEIQIQELTERQQELIQKKKVLTKKIKQCLEDSDAGASNEYDSSPAAWNKEDFPWSGKVKDILQNVFKLEKFRPLQLETINVTMAGKEVFLVMPTGGGKSLCYQLPALCSDGFTLVICPLISLMEDQLMVLKQLGISATMLNASSSKEHVKWVHAEMVNKNSELKLIYVTPEKIAKSKMFMSRLEKAYEARRFTRIAVDEVHCCSQWGHDFRPDYKALGILKRQFPNASLIGLTATATNHVLTDAQKILCIEKCFTFTASFNRPNLYYEVRQKPSNTEDFIEDIVKLINGRYKGQSGIIYCFSQKDSEQVTVSLQNLGIHAGAYHANLEPEDKTTVHRKWSANEIQVVVATVAFGMGIDKPDVRFVIHHSMSKSMENYYQESGRAGRDDMKADCILYYGFGDIFRISSMVVMENVGQQKLYEMVSYCQNISKCRRVLMAQHFDEVWNSEACNKMCDNCCKDSAFERKNITEYCRDLIKILKQAEELNEKLTPLKLIDSWMGKGAAKLRVAGVVAPTLPREDLEKIIAHFLIQQYLKEDYSFTAYATISYLKIGPKANLLNNEAHAITMQVTKSTQNSFRAESSQTCHSEQGDKKMEEKNSGNFQKKAANMLQQSGSKNTGAKKRKIDDA | – | binds
